{"source": "patent US8603949B2", "about": "“Libraries of optimized cytochrome P450 enzymes and the optimized P450 enzymes” (California Institute of Technology, priority 2003, dated 2013)", "molecules": {"B1": {"name": "Chimera 191-335: CYP102A1 heme domain with residues 191-335 from CYP102A2 (protein)", "chain": "TIKEMPQPKTFGELKNLPLLNTDKPVQALMKIADELGEIFKFEAPGRVTRYLSSQRLIKEACDESRFDKNLSQALKFVRDFAGDGLATSWTHEKNWKKAHNILLPSFSQQAMKGYHAMMVDIAVQLVQKWERLNADEHIEVPEDMTRLTLDTIGLCGFNYRFNSFYRDQPHPFITSMVRALDEAMNKLQRLDVQDKLMVRTKRQFRYDIQTMFSLVDSIIAERRANGDQDEKDLLARMLNVEDPETGEKLDDENIRFQIITFLIAGHETTSGLLSFATYFLLKHPDKLKKAYEEVDRVLTDAAPTYKQVLELTYIRMILNESLRLWPTAPAFSLYPKEDTVLGGEYPLEKGDELMVLIPQLHRDKTIWGDDVEEFRPERFENPSAIPQHAFKPFGNGQRACIGQQFALHEATLVLGMMLKHFDFEDHTNYELDIKETLTLKPEGFVVKAKSKKIPLGGIPSPST", "modifications": "Chimeric Cytochrome P450 heme group sequence from Bacillus megaterium and Bacillus subtilis", "notes": "CYP102A1 heme domain with residues 191-335 from CYP102A2"}, "B2": {"name": "Chimera 43-135: CYP102A1 heme domain with residues 43-135 from CYP102A2 (protein)", "chain": "TIKEMPQPKTFGELKNLPLLNTDKPVQALMKIADELGEIFKFHTPAGTTIVVSGHELVKEVCDEERFDKSIEGALEKVRAFSGDGLATSWTHEPNWRKAHNILMPTFSQRAMKDYHEKMVDIAVQLIQKWARLNPDEHIEVPEDMTRLTLDTIGLCGFNYRFNSFYRDQPHPFITSMVRALDEAMNKLQRANPDDPAYDENKRQFQEDIKVMNDLVDKIIADRKASGEQSDDLLTHMLNGKDPETGEPLDDENIRYQIITFLIAGHETTSGLLSFALYFLVKNPHVLQKAAEEAARVLVDPVPSYKQVKQLKYVGMVLNEALRLWPTAPAFSLYAKEDTVLGGEYPLEKGDELMVLIPQLHRDKTIWGDDVEEFRPERFENPSAIPQHAFKPFGNGQRACIGQQFALHEATLVLGMMLKHFDFEDHTNYELDIKETLTLKPEGFVVKAKSKKIPLGGIPSPST", "modifications": "Chimeric Cytochrome P450 heme group sequence from Bacillus megaterium and Bacillus subtilis", "notes": "CYP102A1 heme domain with residues 43-135 from CYP102A2"}, "B3": {"name": "Chimera 165-256: CYP102A1 heme domain with residues 165-256 from CYP102A2 (protein)", "chain": "TIKEMPQPKTFGELKNLPLLNTDKPVQALMKIADELGEIFKFEAPGRVTRYLSSQRLIKEACDESRFDKNLSQALKFVRDFAGDGLATSWTHEKNWKKAHNILLPSFSQQAMKGYHAMMVDIAVQLVQKWERLNADEHIEVPEDMTRLTLDTIGLCGFNYRFNSYYRETPHPFINSMVRALDEAMHQMQRLDVQDKLMVRTKRQFRYDIQTMFSLVDSIIAERRANGDQDEKDLLARMLNVEDPETGEKLDDENIRFQIITFLIAGHETTSGLLSFALYFLVKNPHVLQKAAEEAARVLVDPVPSYKQVKQLKYVGMVLNEALRLWPTAPAFSLYAKEDTVLGGEYPLEKGDELMVLIPQLHRDKTIWGDDVEEFRPERFENPSAIPQHAFKPFGNGQRACIGQQFALHEATLVLGMMLKHFDFEDHTNYELDIKETLTLKPEGFVVKAKSKKIPLGGIPSPST", "modifications": "Chimeric Cytochrome P450 heme group sequence from Bacillus megaterium and Bacillus subtilis", "notes": "CYP102A1 heme domain with residues 165-256 from CYP102A2"}, "B4": {"name": "CYP102A1: parent P450 heme domain from Bacillus megaterium, with the F87A mutation (protein, listed as Bacillus megaterium)", "chain": "TIKEMPQPKTFGELKNLPLLNTDKPVQALMKIADELGEIFKFEAPGRVTRYLSSQRLIKEACDESRFDKNLSQALKFVRDFAGDGLATSWTHEKNWKKAHNILLPSFSQQAMKGYHAMMVDIAVQLVQKWERLNADEHIEVPEDMTRLTLDTIGLCGFNYRFNSFYRDQPHPFITSMVRALDEAMNKLQRANPDDPAYDENKRQFQEDIKVMNDLVDKIIADRKASGEQSDDLLTHMLNGKDPETGEPLDDENIRYQIITFLIAGHETTSGLLSFALYFLVKNPHVLQKAAEEAARVLVDPVPSYKQVKQLKYVGMVLNEALRLWPTAPAFSLYAKEDTVLGGEYPLEKGDELMVLIPQLHRDKTIWGDDVEEFRPERFENPSAIPQHAFKPFGNGQRACIGQQFALHEATLVLGMMLKHFDFEDHTNYELDIKETLTLKPEGFVVKAKSKKIPLGGIPSPST"}, "B5": {"name": "Chimera 169-197: CYP102A1 heme domain with residues 169-197 from CYP102A2 (protein)", "chain": "TIKEMPQPKTFGELKNLPLLNTDKPVQALMKIADELGEIFKFEAPGRVTRYLSSQRLIKEACDESRFDKNLSQALKFVRDFAGDGLATSWTHEKNWKKAHNILLPSFSQQAMKGYHAMMVDIAVQLVQKWERLNADEHIEVPEDMTRLTLDTIGLCGFNYRFNSFYRDTPHPFINSMVRALDEAMHQMQRLDVQDKLYDENKRQFQEDIKVMNDLVDKIIADRKASGEQSDDLLTHMLNGKDPETGEPLDDENIRYQIITFLIAGHETTSGLLSFALYFLVKNPHVLQKAAEEAARVLVDPVPSYKQVKQLKYVGMVLNEALRLWPTAPAFSLYAKEDTVLGGEYPLEKGDELMVLIPQLHRDKTIWGDDVEEFRPERFENPSAIPQHAFKPFGNGQRACIGQQFALHEATLVLGMMLKHFDFEDHTNYELDIKETLTLKPEGFVVKAKSKKIPLGGIPSPST", "modifications": "Chimeric Cytochrome P450 heme group sequence from Bacillus megaterium and Bacillus subtilis", "notes": "CYP102A1 heme domain with residues 169-197 from CYP102A2"}}, "note": "“Also recorded” adds a separate entry of the source.", "data": [{"experiment": "Peroxygenase activity on allyloxy-benzene (4-AAP assay)", "format": "biochemical", "conditions": "50 mM substrate", "method": "(§1) The chimeras were assayed for hydroxylation of p-nitrophenoxydodecanoic acid (12-pNCA), a fatty acid analog that is hydroxylated by CYP102A1 and CYP102A2 to yield p-nitrophenolate (Schwaneberg et al., Anal Biochem 269,359-366 (1999)). […] When hydroxylation rates for the parent CYP102 enzymes were monitored using the maximum soluble concentrations of these substrates, activity could only be detected on 2-phenoxy-ethanol.\n(§2) Rates on 2-phenoxy-ethanol and allyloxy-benzene were determined using 2 μM enzyme, 20 mM H2O2, 1% DMSO, and 1% acetone in 100 mM N-[2-hydroxyethyl]piperazine-N′-[3-propanesulfonic acid] (Epps) (pH 8.2) at room temperature. Substrate concentrations for 2-phenoxy-ethanol (100 mM) and allyloxy benzene (50 mM) maintained saturation. Reactions were initiated by the addition of H2O2 and quenched at appropriate times using an equal volume of a solution containing 4M urea and 100 mM NaOH. 120 μl of 0.6% 4-AAP was added, followed by mixing and addition of 120 μl of 0.6% potassium persulfate. Color was allowed to develop for 20 minutes before absorbance was read at 500 nm. Rates were determined from the linear region of the time course. The major products were determined by GC/MS to be the hemiacetal, which decomposes to phenol. The extinction coefficient for the 4-AAP/phenol complex was determined to be 4,800 M^−1cm^−1. The results can be seen in FIG. 4.", "values": [{"molecule": "B1", "peroxygenase activity on allyloxy-benzene": "detectable activity"}, {"molecule": "B2", "peroxygenase activity on allyloxy-benzene": "highest rates; also recorded: detectable activity"}, {"molecule": "B3", "peroxygenase activity on allyloxy-benzene": "highest rates"}]}, {"experiment": "Peroxygenase activity on 2-phenoxy-ethanol (4-AAP assay)", "format": "biochemical", "conditions": "100 mM substrate", "method": "as §1, §2", "values": [{"molecule": "B1", "peroxygenase activity on 2-phenoxy-ethanol": "detectable activity"}, {"molecule": "B2", "peroxygenase activity on 2-phenoxy-ethanol": "detectable activity"}]}, {"experiment": "not given", "conditions": "Li et al. 2001; read-out: KM for 12-pNCA; cited from earlier work", "units": {"Km": "µM"}, "values": [{"molecule": "B4", "Km": 8.1}]}, {"experiment": "Thermostability (loss of Soret band at increasing temperatures)", "format": "physicochemical", "conditions": "cell extracts heated 10 minutes", "method": "Thermostability was assayed by monitoring the loss of the Soret band at increasing temperatures. […] However, thermostability may be important for retention of catalytic activity: the two chimeras that lacked peroxygenase activity were also the least thermostable.\nCell extracts were heated in a thermocycler for 10 minutes at various temperatures, followed by cooling to 4° C. Extracts were centrifuged for 5 minutes at 3500×g to remove any precipitates. Carbon monoxide reduced difference spectroscopy was used to quantitate the amount of P450. The reduction of the carbon monoxide peak was monitored over a range of temperatures.", "units": {"Tm": "°C"}, "values": [{"molecule": "B5", "Tm": 52}, {"molecule": "B4", "Tm": 55}, {"molecule": "B1", "Tm": 40}, {"molecule": "B2", "Tm": 53}, {"molecule": "B3", "Tm": 48}]}, {"experiment": "Peroxidase activity with ABTS and H2O2", "format": "biochemical", "conditions": "10 mM ABTS, 20 mM H2O2, pH 5.0; activities <0.2 not detectable (N.D.)", "source_text": "(§3) P450s can reduce peroxide to water (and a proton) using a mechanism similar to that of peroxidases, although the intrinsic rate for P450s is many orders of magnitude slower. (Mansuy, D., Comp Biochem Physiol C Pharmacol Toxicol Endocrinol 121, 5-14 (1998)). It has been proposed that the earliest P450 function may have been as a peroxidase. (Gotoh, O., Cytochrome P450, 2nd Edition, pp. 255-272 (1993)). To investigate how recombination affects P450 peroxidase activity, the colorimetric substrate 2,2′-azino-bis(3-ethylbenzothiazoline-6-sulfonate) (ABTS) was used to monitor this reaction (Childs et al., Biochem J 145,93-103 (1975)).\n(§4) This example provides an example of how one can measure peroxidase activity. Initial rates of peroxidase activity were measured by monitoring the accumulation of the radical cation of ABTS at 414 nm (Childs et al., Biochem J., 145:93-103 (1975)). Enzyme (1 μM) was mixed with 10 mM ABTS in 200 mM phosphate buffer (pH 5.0) in a cuvette at room temperature. Samples were zeroed and reactions were initiated with the addition of H2O2 to a concentration of 20 mM. The absorbance at 414 nm was monitored for 5 minutes. Rates were determined from the steepest portion of the time course. An extinction coefficient of […] for ABTS was used.", "values": [{"molecule": "B5", "Peroxidase activity": "100.3 nmol product/nmol P450/min"}, {"molecule": "B4", "Peroxidase activity": "2.6 nmol product/nmol P450/min"}, {"molecule": "B2", "Peroxidase activity": "6.8 nmol product/nmol P450/min"}, {"molecule": "B3", "Peroxidase activity": "16.1 nmol product/nmol P450/min"}]}, {"experiment": "Peroxidase activity with ABTS and H2O2", "format": "biochemical", "conditions": "ABTS", "source_text": "as §3, §4", "values": [{"molecule": "B5", "fold increase of peroxidase activity over the most active parent": "approximately 40 fold", "peroxidase activity relative to parents": "highest peroxidase and peroxygenase rates; also recorded: significantly higher peroxidase activities"}, {"molecule": "B4", "peroxidase activity relative to parents": "low, but detectable peroxidase activity"}, {"molecule": "B1", "peroxidase activity relative to parents": "no detectable peroxidase activity"}, {"molecule": "B3", "peroxidase activity relative to parents": "significantly higher peroxidase activities"}]}, {"experiment": "Peroxygenase activity, hydroxylation of 12-pNCA", "format": "biochemical", "conditions": "250 μM 12-pNCA", "method": "as §1\n(§5) This Example provides one method by which peroxygenase activity of a P450 enzyme may be characterized. First order rates for p-nitrophenolate accumulation were determined using 1 μM enzyme, 20 mM H2O2, 250 μM 12-pNCA and 0.5% dimethyl sulfoxide (DMSO) in 100 mM Tris-HCl (pH 8.2) at room temperature. Enzyme, substrate, buffer and DMSO were combined in a cuvette and zeroed at 410 nm. Reaction mixtures were incubated for 4 minutes and initiated by the addition of H2O2 to a final concentration of 20 mM. Initial rates were determined by monitoring the accumulation of p-nitrophenolate at 410 nm, and data from the first six seconds were used to determine initial rates. […] The extinction coefficient of p-nitrophenolate is 13,200 M^−1cm^−1 (Schwaneberg et al., Anal Biochem 269:359-366 (1999)).", "values": [{"molecule": "B5", "peroxygenase activity on 12-pNCA": "most active; also recorded: significant increase"}, {"molecule": "B1", "peroxygenase activity on 12-pNCA": "not"}, {"molecule": "B2", "peroxygenase activity on 12-pNCA": "not"}]}, {"experiment": "Peroxygenase substrate activity profile", "format": "biochemical", "conditions": "20 mM H2O2", "method": "as §1\nChimeras were assayed for peroxygenase activity on 12-pNCA, 2-phenoxy -ethanol and allyloxy-benzene. […] Rates are reported in nmol product/nmol P450/minute. […] Those with no activity include 65-256 and 277-365. Those with new activity include 165-256, 191-335, and 43-135.\nas §5, §2", "values": [{"molecule": "B5", "substrate activity profile relative to parents": "parent-like profiles"}, {"molecule": "B1", "substrate activity profile relative to parents": "new activity; also recorded: gained novel activity"}, {"molecule": "B2", "substrate activity profile relative to parents": "new activity; also recorded: gained novel activity"}, {"molecule": "B3", "substrate activity profile relative to parents": "broadest substrate specificity; also recorded: new activity; also recorded: active on all three substrates; also recorded: gained novel activity"}]}]}
